Results as given in the supplement of paper PMC11780869.

Tested on: Bacillus subtilis
Assay: cleaved RNA product abundance (RNA/gDNA barcode ratio) relative to median wild-type variant (ratio to wild type); higher = more accumulation of the downstream cleavage product
Details: cleavage site: cggR-gapA (positions -7 to +36 mutated)
Outline: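 Cleaved product abundance was measured with barcoded reporter mRNAs (truncated aprE or tetM) carrying mutagenized RNase Y cleavage-site windows in the B. subtilis chromosome. Cultures in LB at 37°C grew from OD600 0.0003 to 0.3. Gel-selected cleaved RNA was reverse transcribed and barcode-sequenced with genomic DNA barcodes, and the RNA:gDNA barcode ratio per construct was scaled to the median construct bearing the unmutated site.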

[1] = experiment (reporter, strain, medium): exp 2b: truncated aprE reporter, strain BJT200
[2] = experiment (reporter, strain, medium): exp 4a: truncated aprE reporter, strain BJT201 with 2% xylose (RNase J1 expressed)
[3] = experiment (reporter, strain, medium): exp 6: tetM reporter, strain 168

Sequence | cleaved RNA product abundance [1] | cleaved RNA product abundance [2] | cleaved RNA product abundance [3]
ACAGACGAAGGAGCCGCAAAGAAGTTATTAAGGGATGAATAATCACTTAATATAAATATCTCTCACTTATTTAAA | 0.584 | 0.498 | 
ACAGACGAAGGAGCCGCAAAGAAGTTATTAAGGGATGAATAATCAGTCAATATAAATATCTCTCACTTATTTAAA |  | 0.0967 | 
ACAGACGAAGGAGCCGCAAAGAAGTTATTAAGGGATGAATAATCATTCAATATAAATATCTCTCACTTATTTAAA | 0.171 | 0.295 | 
ACAGACGAAGGAGCCGCAAAGAAGTTATTAAGGGATGAATAATCCAACAATATAAATATCTCTCACTTATTTAAA | 0.184 | 0.174 | 
ACAGACGAAGGAGCCGCAAAGAAGTTATTAAGGGATGAATAATCCACCAATATAAATATCTCTCACTTATTTAAA | 0.186 | 0.142 | 
ACAGACGAAGGAGCCGCAAAGAAGTTATTAAGGGATGAATAATCCATAAATATAAATATCTCTCACTTATTTAAA | 0.17 | 0.261 | 
ACAGACGAAGGAGCCGCAAAGAAGTTATTAAGGGATGAATAATCCATCAAAATAAATATCTCTCACTTATTTAAA | 0.132 | 0.221 | 
ACAGACGAAGGAGCCGCAAAGAAGTTATTAAGGGATGAATAATCCATCAACATAAATATCTCTCACTTATTTAAA | 0.164 |  | 
ACAGACGAAGGAGCCGCAAAGAAGTTATTAAGGGATGAATAATCCATCAATAAAAATATCTCTCACTTATTTAAA | 0.11 | 0.107 | 
ACAGACGAAGGAGCCGCAAAGAAGTTATTAAGGGATGAATAATCCATCAATACAAATATCTCTCACTTATTTAAA |  | 0.0901 | 
ACAGACGAAGGAGCCGCAAAGAAGTTATTAAGGGATGAATAATCCATCAATAGAAATATCTCTCACTTATTTAAA | 0.0728 | 0.0602 | 
ACAGACGAAGGAGCCGCAAAGAAGTTATTAAGGGATGAATAATCCATCAATATAAAAATCTCTCACTTATTTAAA |  | 0.145 | 
ACAGACGAAGGAGCCGCAAAGAAGTTATTAAGGGATGAATAATCCATCAATATAAATAACTCTCACTTATTTAAA |  | 0.185 | 
ACAGACGAAGGAGCCGCAAAGAAGTTATTAAGGGATGAATAATCCATCAATATAAATATCTCTCACTTATTTAAA | 0.184 | 0.23 | 0.201
ACAGACGAAGGAGCCGCAAAGAAGTTATTAAGGGATGAATAATCCATCAATATAAATATTTCTCACTTATTTAAA |  | 0.286 | 
ACAGACGAAGGAGCCGCAAAGAAGTTATTAAGGGATGAATAATCCATCAATATAAATCTCTCTCACTTATTTAAA |  | 0.17 | 
ACAGACGAAGGAGCCGCAAAGAAGTTATTAAGGGATGAATAATCCATCAATATAAGTATCTCTCACTTATTTAAA |  | 0.0774 | 
ACAGACGAAGGAGCCGCAAAGAAGTTATTAAGGGATGAATAATCCATCAATATACATATCTCTCACTTATTTAAA |  | 0.296 | 
ACAGACGAAGGAGCCGCAAAGAAGTTATTAAGGGATGAATAATCCATCAATATATATATCTCTCACTTATTTAAA | 0.19 | 0.191 | 
ACAGACGAAGGAGCCGCAAAGAAGTTATTAAGGGATGAATAATCCATCAATGTAAATATCTCTCACTTATTTAAA | 0.0896 | 0.0513 | 

Sequence | cleaved RNA product abundance [1] | cleaved RNA product abundance [2] | cleaved RNA product abundance [3]
ACAGACGAAGGAGCCGCAAAGAAGTTATTAAGGGATGAATAATCCATCAATTTAAATATCTCTCACTTATTTAAA |  | 0.13 | 
ACAGACGAAGGAGCCGCAAAGAAGTTATTAAGGGATGAATAATCCATCATTATAAATATCTCTCACTTATTTAAA | 0.158 |  | 
ACAGACGAAGGAGCCGCAAAGAAGTTATTAAGGGATGAATAATCCATCCATATAAATATCTCTCACTTATTTAAA |  | 0.222 | 
ACAGACGAAGGAGCCGCAAAGAAGTTATTAAGGGATGAATAATCCATCGATATAAATATCTCTCACTTATTTAAA |  | 0.112 | 
ACAGACGAAGGAGCCGCAAAGAAGTTATTAAGGGATGAATAATCCATCTATATAAATATCTCTCACTTATTTAAA | 0.191 |  | 
ACAGACGAAGGAGCCGCAAAGAAGTTATTAAGGGATGAATAATCCATGAATATAAATATCTCTCACTTATTTAAA |  | 0.18 | 
ACAGACGAAGGAGCCGCAAAGAAGTTATTAAGGGATGAATAATCCATTAATATAAATATCTCTCACTTATTTAAA | 0.766 | 0.688 | 0.984
ACAGACGAAGGAGCCGCAAAGAAGTTATTAAGGGATGAATAATCCCAAAATATAAATATCTCTCACTTATTTAAA | 0.306 | 0.31 | 
ACAGACGAAGGAGCCGCAAAGAAGTTATTAAGGGATGAATAATCCCACAAAATAAATATCTCTCACTTATTTAAA |  | 0.256 | 
ACAGACGAAGGAGCCGCAAAGAAGTTATTAAGGGATGAATAATCCCACAAGATAAATATCTCTCACTTATTTAAA | 0.158 | 0.187 | 
ACAGACGAAGGAGCCGCAAAGAAGTTATTAAGGGATGAATAATCCCACAATATAAAAATCTCTCACTTATTTAAA |  | 0.25 | 
ACAGACGAAGGAGCCGCAAAGAAGTTATTAAGGGATGAATAATCCCACAATATAAACATCTCTCACTTATTTAAA |  | 0.277 | 
ACAGACGAAGGAGCCGCAAAGAAGTTATTAAGGGATGAATAATCCCACAATATAAATAACTCTCACTTATTTAAA | 0.231 |  | 
ACAGACGAAGGAGCCGCAAAGAAGTTATTAAGGGATGAATAATCCCACAATATAAATATCTCTCACTTATTTAAA | 0.204 | 0.279 | 0.271
ACAGACGAAGGAGCCGCAAAGAAGTTATTAAGGGATGAATAATCCCACAATATAAATATTTCTCACTTATTTAAA |  | 0.386 | 
ACAGACGAAGGAGCCGCAAAGAAGTTATTAAGGGATGAATAATCCCACAATATACATATCTCTCACTTATTTAAA |  | 0.249 | 
ACAGACGAAGGAGCCGCAAAGAAGTTATTAAGGGATGAATAATCCCACAATATATATATCTCTCACTTATTTAAA |  | 0.303 | 
ACAGACGAAGGAGCCGCAAAGAAGTTATTAAGGGATGAATAATCCCACAATATGAATATCTCTCACTTATTTAAA | 0.107 | 0.0667 | 
ACAGACGAAGGAGCCGCAAAGAAGTTATTAAGGGATGAATAATCCCACATTATAAATATCTCTCACTTATTTAAA |  | 0.152 | 
ACAGACGAAGGAGCCGCAAAGAAGTTATTAAGGGATGAATAATCCCACCATATAAATATCTCTCACTTATTTAAA | 0.16 | 0.228 | 

Sequence | cleaved RNA product abundance [1] | cleaved RNA product abundance [2] | cleaved RNA product abundance [3]
ACAGACGAAGGAGCCGCAAAGAAGTTATTAAGGGATGAATAATCCCACTATATAAATATCTCTCACTTATTTAAA |  | 0.282 | 
ACAGACGAAGGAGCCGCAAAGAAGTTATTAAGGGATGAATAATCCCAGAATATAAATATCTCTCACTTATTTAAA |  | 0.361 | 
ACAGACGAAGGAGCCGCAAAGAAGTTATTAAGGGATGAATAATCCCATAATATAAATATCTCTCACTTATTTAAA |  | 0.715 | 
ACAGACGAAGGAGCCGCAAAGAAGTTATTAAGGGATGAATAATCCCCAAATATAAATATCTCTCACTTATTTAAA | 0.336 |  | 
ACAGACGAAGGAGCCGCAAAGAAGTTATTAAGGGATGAATAATCCCCCAATATAAACATCTCTCACTTATTTAAA |  | 0.291 | 
ACAGACGAAGGAGCCGCAAAGAAGTTATTAAGGGATGAATAATCCCCCAATATAAATAACTCTCACTTATTTAAA |  | 0.347 | 
ACAGACGAAGGAGCCGCAAAGAAGTTATTAAGGGATGAATAATCCCCCAATATAAATATCTCTCACTTATTTAAA | 0.285 | 0.36 | 0.457
ACAGACGAAGGAGCCGCAAAGAAGTTATTAAGGGATGAATAATCCCCCAATATACATATCTCTCACTTATTTAAA |  | 0.446 | 
ACAGACGAAGGAGCCGCAAAGAAGTTATTAAGGGATGAATAATCCCCCACTATAAATATCTCTCACTTATTTAAA |  | 0.3 | 
ACAGACGAAGGAGCCGCAAAGAAGTTATTAAGGGATGAATAATCCCCCTATATAAATATCTCTCACTTATTTAAA |  | 0.151 | 
ACAGACGAAGGAGCCGCAAAGAAGTTATTAAGGGATGAATAATCCCCTAATATAAATATCTCTCACTTATTTAAA |  | 1.25 | 
ACAGACGAAGGAGCCGCAAAGAAGTTATTAAGGGATGAATAATCCCCTCAATATAAATATCTCTCACTTATTTAA | 0.181 | 0.364 | 
ACAGACGAAGGAGCCGCAAAGAAGTTATTAAGGGATGAATAATCCCGAAATATAAATATCTCTCACTTATTTAAA |  | 0.323 | 
ACAGACGAAGGAGCCGCAAAGAAGTTATTAAGGGATGAATAATCCCGCAATATAAATATCTCTCACTTATTTAAA | 0.194 | 0.244 | 0.252
ACAGACGAAGGAGCCGCAAAGAAGTTATTAAGGGATGAATAATCCCGCAATATAGATATCTCTCACTTATTTAAA |  | 0.279 | 
ACAGACGAAGGAGCCGCAAAGAAGTTATTAAGGGATGAATAATCCCGCAATATATATATCTCTCACTTATTTAAA |  | 0.139 | 
ACAGACGAAGGAGCCGCAAAGAAGTTATTAAGGGATGAATAATCCCGCATTATAAATATCTCTCACTTATTTAAA |  | 0.101 | 
ACAGACGAAGGAGCCGCAAAGAAGTTATTAAGGGATGAATAATCCCGTAATATAAATATCTCTCACTTATTTAAA |  | 0.682 | 
ACAGACGAAGGAGCCGCAAAGAAGTTATTAAGGGATGAATAATCCCTAAAAATAAATATCTCTCACTTATTTAAA | 0.213 | 0.423 | 
